We go through 2 molecules from patent US20250346682A1 (TENEOBIO, published 2025).

The assay concerns the target T1, human CD20 (B-lymphocyte antigen CD20) (human, UniProt P11836 1-297).
T1 construct: whole, on cells; also called MS4A1
T1 sequence (looked up): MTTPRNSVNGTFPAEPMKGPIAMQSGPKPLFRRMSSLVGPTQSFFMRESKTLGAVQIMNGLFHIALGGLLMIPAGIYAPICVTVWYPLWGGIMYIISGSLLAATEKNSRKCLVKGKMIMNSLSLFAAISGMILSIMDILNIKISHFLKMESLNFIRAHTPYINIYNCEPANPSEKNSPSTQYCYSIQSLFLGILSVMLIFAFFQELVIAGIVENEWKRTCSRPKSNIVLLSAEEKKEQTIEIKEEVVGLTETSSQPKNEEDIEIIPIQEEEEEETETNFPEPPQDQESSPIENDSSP
The experiment in a line: ELISA on CD20 protein and cell-binding assays.

B1: anti-CD20 heavy chain-only antibody (UniAb) Clone ID 367936 (antibody, V domains shown)
VH: QVQLQESGPGLVKPSETLSLTCTVSGGSVSSGNYYWNWIRQPPGKGLEWIGYIYSSGSTKYNPSLKSRVTILVDTSKNQFSLKLSSVTAADTAVYYCARSRLNGDGLFDDRGQGTLVTVSS
notes: Heavy chain-only antibody (UniAb) from UniRat, called human IgG, with no light chain; also called VH936
Regarding B1, the binding result is on record as “binds”.

B2: anti-CD20 heavy chain-only antibody (UniAb) Clone ID 367912 (antibody, V domains shown)
VH: EVQLVESGGGVVRPGGSLRLSCAASGFTFDDYGMSWVRQAPGKGLEWVSSINWNGGSKGYADSVKGRFTISRDNAKNSLYLQMNSLRVEDTALYQCARERGYRIGHDSFDIWGQGTLVTVSS
notes: Heavy chain-only antibody (UniAb) from UniRat, called human IgG, with no light chain; also called VH912
Take B2: the binding result is recorded as “binds”.
